This is an account of results in publication doi:10.1101/2024.09.16.613172.

Holding throughout (assay): ITC
For orientation: ITC needs no label: the signal is the heat of the interaction.

In assay [1] the target is FAST-PETase-CelK (not stated | Clostridium thermocellum).
For assay [2], the target named is MHETase-CelF (not stated | Clostridium cellulolyticum) (UniProt P37698).
In assay [3] the target is SH3L-optiMHETase.
Assay [4] has as its target ICCG-ScaA (not stated | Ruminococcus flavefaciens).

pKd: −log10 of the molar value.

Regarding CipA-CBM-CipC (Scaf.2), the pKd (usually the negative decadic logarithm of the Kd, by convention in mol/L) in assay [1] is 7.72; in assay [2], 6.00.

In assay [3], CipA-CBM-SH3D (Scaf.3) gave a pKd of 7.90.

As for CipA-CBM-SH3D-ScaB (Scaf.4), the negative-log Kd (pKd) was 8.28 in assay [4], 8.19 in assay [1] and 8.45 in assay [3].
